Laboratory results taken from US20110117113A1, “IMMUNOGLOBULIN SINGLE VARIABLE DOMAIN DIRECTED AGAINST HUMAN CXCR4 AND OTHER CELL ASSOCIATED PROTEINS AND METHODS TO GENERATE THEM” (priority 2009, published 2011).
Substitutions are numbered along the chain they refer to.

Key:
[1] = biological target: all CXCR4 library clones containing a mutation at F189; assay: immunofluorescence, average over all clones with a mutation at F189
[2] = biological target: all CXCR4 library clones containing a mutation at E277; assay: immunofluorescence, high stringency, average over all clones with a mutation at E277
[3] = biological target: CXCR4 mutation library clone 2396 (S178C) (human, UniProt P61073 1-352); assay: immunofluorescence on HEK-293T expressing the clone, normalised to wild type
[4] = biological target: T1, CXCR4 mutation library clone 2834 (E179V, G258E) (human, UniProt P61073 1-352); assay: as above
T1 chain: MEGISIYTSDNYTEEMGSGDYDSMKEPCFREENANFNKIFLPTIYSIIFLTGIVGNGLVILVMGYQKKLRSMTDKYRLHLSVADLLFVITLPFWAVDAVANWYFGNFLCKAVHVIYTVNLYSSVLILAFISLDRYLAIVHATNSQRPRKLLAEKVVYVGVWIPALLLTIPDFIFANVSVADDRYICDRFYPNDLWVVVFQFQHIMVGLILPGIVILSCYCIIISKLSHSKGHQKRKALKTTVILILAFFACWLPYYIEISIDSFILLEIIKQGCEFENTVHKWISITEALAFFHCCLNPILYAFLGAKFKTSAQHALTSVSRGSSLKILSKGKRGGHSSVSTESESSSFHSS

[5] = biological target: T2, CXCR4 mutation library clone 914 (N192K) (human, UniProt P61073 1-352); assay: as above
[6] = biological target: T3, CXCR4 mutation library clone 414 (C218R, E179V, S351T) (human, UniProt P61073 1-352); assay: as above
T3 chain: T1 chain with C218R, E258G, S351T

[7] = biological target: T4, CXCR4 mutation library clone 709 (P163L, S178I) (human, UniProt P61073 1-352); assay: as above
T4 chain: T1 chain with P163L, S178I, V179E, E258G

[8] = biological target: T5, CXCR4 mutation library clone 1057 (K230E, S178R) (human, UniProt P61073 1-352); assay: as above
T5 chain: T1 chain with S178R, V179E, K230E, E258G

[9] = biological target: T2, CXCR4 mutation library clone 914 (N192K); assay: immunofluorescence, high stringency, average for residue N192 (one clone)

average nanobody reactivity [1]: -0.9%
average nanobody reactivity [2]: 27.5%
% immunofluorescence [3]: 44.9%
% immunofluorescence [4]: 84.6%
% immunofluorescence [5]: 8.3%
% immunofluorescence [6]: 71.1%
% immunofluorescence [7]: 64.1%
% immunofluorescence [8]: 54.6%
average nanobody reactivity [9]: 8.3%
B1: Nanobody 238D2 (VHH)
VHH: EVQLVESGGGLVQTGGSLRLSCAASGFTFSSYAMSWVRQAPGKGLEWVSGIKSSGDSTRYAGSVKGRFTISRDNAKNMLYLQMYSLKPEDTAVYYCAKSRVSRTGLYTYDNRGQGTQVTVSS
